Data taken from publication PMC13080021.
pKd: −log10 of the molar value. Like-named read-outs stand apart in the source and are kept apart here.

Experiments:
[1] = biological target: eGFP-tagged measles virus C protein, full length (human measles virus) (UniProt P03424); test: MST
[2] = biological target: eGFP-tagged measles virus C protein, full length (human measles virus) (UniProt P03424); test: MST; remark: listed apart in the source
[3] = biological target: measles virus (MeV) phosphoprotein (P), optimized construct (human measles virus) (UniProt P03422); test: cryo-EM structure

Substance: measles virus (MeV) N protein, monomeric (N_ΔN-arm) (domain or fragment)
- pKd [1]: 5.34
- pKd [2]: 5.41

Substance: measles virus (MeV) phosphoprotein (P), optimized construct (from UniProt P03422 1-507) (natural protein)
- stoichiometry N [3]: 4
